T1: IFF05588
T1 chain: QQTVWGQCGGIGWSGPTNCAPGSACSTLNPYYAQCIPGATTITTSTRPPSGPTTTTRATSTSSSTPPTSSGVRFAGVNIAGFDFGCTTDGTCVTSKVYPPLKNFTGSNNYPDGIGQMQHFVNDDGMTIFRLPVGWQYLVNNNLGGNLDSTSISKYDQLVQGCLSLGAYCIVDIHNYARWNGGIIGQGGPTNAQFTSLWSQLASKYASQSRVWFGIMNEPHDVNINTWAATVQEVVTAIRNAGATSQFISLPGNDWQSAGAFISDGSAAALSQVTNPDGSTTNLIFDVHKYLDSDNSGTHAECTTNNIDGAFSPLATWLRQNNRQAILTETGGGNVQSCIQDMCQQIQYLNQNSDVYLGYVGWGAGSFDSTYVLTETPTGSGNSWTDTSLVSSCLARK

B1: IFF21356 (protein)
chain: GNPDKPEVNPHIPYDRLESDLRNNLHPTQSTWDYWGAGWIPQGCKDLANTYHLNPADFTIFNVHYTDCSASWTFCRHKNAGASEIDMIDIFGRLPVHMRSYIRHLVATPGLNDGAAAWTWSSGDCVVESAPNLATLVHEVSHSLDWHALPQYQQPFSSSSIWQDNYNQDSATPTGYGRTNWMENFAETGMVGVYDKVVPGGIGNIEPNWNAIFHQYATYQGYLGDKIIPGGSCANRFDDTPPVAMSNSAKVKVNSPKPGTRIDFAGTNITQIIPSKEVEGLYIKG
B2: IFF21372 (protein)
chain: QNLGKPVLFTDGLSPHVDASFWAHLNPTQSTWDQWGWGWIPQSCFDAANSNNVSPYDFEVFNVHYTDCGTAWVFCRHHSASLSQIDMIDLFGRLPVHERQWIRHVVAVPGGGSAYELNADVVFQGPVGTPSVFQHEVGHAVDFYKNGFQSSGTSQFLNAIQQDSCVPDDYANSNNVEDYTQVGVLSLYEIVNPGGLDPIGANWRCLVNQKNVLDGFQRDNMIPGGVCDRRWADSTIVKMGPAVPRVKRGPVGPIPQPAGLPVPGPSKAGPDVYKNLVFNATEKRNAETRQAAWQKAAKGAEA
B3: IFF21361 (protein)
chain: DLLRPEIDTVFADGLGPLDQPLVDNLPLTSYTLNQWAPGWIPADCKAMIEGQNMSATEMTVWSVAYADCVDPWVMCQHPSAELNLTAMIDLFGRLPVKMRSLVRHLAAIPGRPWAYNSGTTGRISVFAHEVGHSMDYHGYFNDTRGQFSLSSLWLDNFAKDSGVADYYANTDQGENHSQEVVVALFDANVPGGLGSVTGNWSAILHQYATIQGFVGDGGDTLTPGGACSHRHNNSAAVPMTTEDAAQGPPPDVELTGPVHVYAFKPMEPVANATVVKEDGVAAPMVVKVF
B4: IFF21355 (protein)
chain: GNPDKPEVSPRIPYDRLESGLRNNLHPTQSTWDYWGAGWIPQGCKDLAKTYHLNPADFTIFNVHYTDCSASWTFCRHKDAGASEIDMIDIFGRLPVRMRSYIRHLMATPGLNDGAAAWTWSSGDCVVESAPNLATLVHEVSHSLDWHALPQYQQPFSSSSIWQDNYNQDSATPTGYGRTNWMENFAETGTVGVYDKVVPGGIGNIEPNWNAIFHQYATYQGYLGDKIIPGGSCANRFEDTPPVAMSNSVKFKITSPKPEIGIDFVGKNITQIIPSKEVEGLYIKG
B5: IFF21376 (protein)
chain: QTLDKPALTPDLDYLEQGAIDNLAPTQSTNDQWGSGWIPSDCKDIANNEGKNPDDFEIYNVHYDDCDDAWVFCRHKDTPTDLITTIDIFGRLPVAMRSWVRHVLTIPGDNYAYNSNGNIAFFGTTSGIMDVAIHETGHSLDLLGAYGDQLSSSQDWLDNYNQDSNVPDNYAQTNQIENVEQNTVVSVYDKVVPGGFGSAQPNWNNIFHQYATLQGKAGDQIIPGGSCDRHLVNSETVSTSDSAAAAMVDAVDKPVTSFKGNYTKILKTHAKFNTKESCYFGN
B6: IFF21371 (protein)
chain: QLDKPLVVPAMPALDAGLLKHLAAPAYTTSQWEWGWIPQWCKDEAVSEKLSPYDIEVFNIHYNDCKDVWIFCRHNAAQASQKDMIDIFGRMPVRTRQFVRHILAVPGTISAGSSGDNIALRGTGPNLISVLIHEAAHSMDSHAVDSLSKPFHNTAEWLAAYKADSAISDDYAQTSQSENFAQTVVIAVFDKVVPGGIGSVQPSWAAIKNQYTTAQKWLGDLIIPGGTCTARLENSPVASMGRASGNGARMRRRARGGKPDVSLSKDTKVIPAIAGKKIHITSFAQ
B7: IFF21368 (protein)
chain: QLSKPVMNPPVPFSDLDPTLFKYLKSTPHNRDQWGWGWLPARCKAIADQQGLNAYDIDVYNVHYSDCNQAWVMCRHHLSPLSIDTMAENFGRIPVRMRNFVRVQFALPQKDSSFGGATFSDLGDILWYGDVSKTLRFWIHEAGHTIDRNINPGSNDDYSKSSAWLNEYNKDGFICDDYAKNNAAENFAQEVIVALFDKVVPGGLGSVSPNWNSIFHQYATVQSKLGDILIPGGTCNRKFADDTIVCMGPAANCNSKANAKFRLKADKTQDAAIVAASDNPPIEDLFEVEE
B8: IFF21357 (protein)
chain: GNPDKPEVNPHIPYDRLESDLRNNLHPTQSTWDYWGAGWIPQGCKDLANTYHLNPADFTVFNVHYTDCSASWTFCRHKDAGASEIDMIDMLGRLPVRMRSYTRHLMATPGLNDGAAAWTWSTGDTVVESAPNLATLVHEVSHSLDWHALPQYQQPFSSSSIWQDNYNQDSATPTGYGRTNWMENFAETGMVGVYDKVVPGGIGNIESNWNSIFHQYATYQGYLGDKIIPGGSCANRFDDTAPVTMSNSAKFRVTSPKPETGIDFAGKNITQIIPSKEVEGLFIKG
B9: IFF21369 (protein)
chain: QLPKPIMSPAVPFDHTDPILYQHLGSTPSTYDQWGWGWLPLRCKAVAEARGLNPYDVNVYNVHYEDCDQAWVMCRHHGAQVSLDQMIDNFGRLPVRLRNIVRHQFAVPGEGLGAYTYSDLGDIVFTGDIGHLLRFWVHEAGHAVDRNINPSQGDYSSSQAWINEYNKDGYICDEYAKNNMAENFAQEVIVALFDKVVPGGIGTIVPNWNDIFHQYATVQAVMGDMLIPGGFCNRHFADDTIVCMGPAAGCENSKRDYEGLNSTETYTAEAEEPTVCTLA
B10: IFF21362 (protein)
chain: GSPDKPEMNPAFDYGRFEAGLRDNLHPTHSTWDYWGPGWIPQSCKDIATSHGLSPNDFTIFNVHYDDCQEGWTFCRHKDAGASEIDMIDIFGRAPVHMRSFIRHLVATPGLHDGAAAFTFSNGDCVVESAPDLSVMLHEMSHSLDWHALPQYPSPFSSSNEWQSNYAQDSNTPTAYGRTNWLEDFAEAGKVGVFDKVVPGGFGSVAGNWGQVFHQYATYQGYLGDTILPGGTCDKRFPNSETVPMAGNSKRMAADLGEKPDNTIKADNMTLIQMRPEIEGQVSICEHQH
B11: IFF21377 (protein)
chain: KRLDKPALTPDLGYLLQGSVDNLHPTHSTWDKWGDGWIPEDCKSMAQNPNLNLNLNPSDFEVYNVHYDDCGDAWVLCRHKDSPVDLVTTVDIFGRLPVRMRDWVRHVMTVPGNDYAFNLNGNIVFSGRTSTNMDVAIHETGHSLDLLKAYGEVLSSSQTWIDNYNQDSNVPDNYAQSSQIENVAQNTVVSVFDKIVPGGFGSVQPNWHNIFHQYATLKSKAGDLILPGGQCDRRLKDSSPIPMDSNANEQGLLSWKPRTSFVNTYNNIVTNFEPFNTAEHCKESFS
B12: IFF21353 (protein)
chain: NLDKPVIQPNFPSLAPGLMSHLAPTHSTWDDWGAGWIPQDCKSMVQGAGFSPNDIIPFNIHYDDCGQTWTFCRHKNSPLSELQILDMFGRLPVRMRSFVRHLVFVPGNRSAGSNGDNILVVGDGDITLFAHEIGHSLDSHAFDPSYGVPFSTGNVWVSNYNLDSAVSDSYAQTSQQENFAQETVISLFDKVVPGGIGTIQPNWQAIFHQYATLQGYIGNVIIPGGTCTHRLTDSPPVPMSGSAKSRRGLGPKPEVSLSPEVKEIEAIPMESSITMTSFDEHGKPNGTYVIHLK

Target: T1, IFF05588

Going from B1 to B2, the Relative late peak area (centered, scaled, averaged over 5, 10 and 15 min) rises from -1.04 to 1.62.

Compared with B3, B4 is higher in Relative late peak area (centered, scaled, averaged over 5, 10 and 15 min): -1.05 for the first, -1.02 for the second.

Compared with B5, B6 is higher in Relative late peak area (centered, scaled, averaged over 5, 10 and 15 min): -0.99 for the first, -0.95 for the second.

First: B7
Second: B8
The Relative late peak area (centered, scaled, averaged over 5, 10 and 15 min) of the first is higher: -1 for the first, -1.05 for the second.

First: B9
Second: B10
The Relative late peak area (centered, scaled, averaged over 5, 10 and 15 min) of the first is lower: -1 for the first, -0.99 for the second.

First: B11
Second: B12
The Relative late peak area (centered, scaled, averaged over 5, 10 and 15 min) of the first is higher: -0.99 for the first, -1.06 for the second.

First: B1
Second: B3
The Relative late peak area (centered, scaled, averaged over doses, 24 h; sample diluted 1-fold) of the first is higher: -1.52 for the first, -1.64 for the second.

Compared with B4, B5 is lower in Relative late peak area (centered, scaled, averaged over doses, 24 h; sample diluted 1-fold): -1.52 for the first, -1.61 for the second.

First: B6
Second: B7
The Relative late peak area (centered, scaled, averaged over doses, 24 h; sample diluted 1-fold) of the first is higher: -1.12 for the first, -1.44 for the second.

First: B8
Second: B9
The Relative late peak area (centered, scaled, averaged over doses, 24 h; sample diluted 1-fold) of the first is lower: -1.49 for the first, -1.42 for the second.

First: B10
Second: B11
The Relative late peak area (centered, scaled, averaged over doses, 24 h; sample diluted 1-fold) of the first is lower: -1.52 for the first, -1.45 for the second.

B12 was tested, and the Relative late peak area (centered, scaled, averaged over doses, 24 h; sample diluted 1-fold) was -1.31.

For B1, the “modification of IFF05588 (reverse phase chromatography, 5 to 15 min)” value was “All samples containing proteins related to IFF05497 except seven (IFF21355, IFF21358, IFF21356, IFF21361, IFF21370, IFF21357 and IFF21353) are able to modify IFF05588 under these reaction conditions”.
B3 was tested, and the “modification of IFF05588 (reverse phase chromatography, 5 to 15 min)” value was “All samples containing proteins related to IFF05497 except seven (IFF21355, IFF21358, IFF21356, IFF21361, IFF21370, IFF21357 and IFF21353) are able to modify IFF05588 under these reaction conditions”.
In the case of B4, the “modification of IFF05588 (reverse phase chromatography, 5 to 15 min)” value is reported as “All samples containing proteins related to IFF05497 except seven (IFF21355, IFF21358, IFF21356, IFF21361, IFF21370, IFF21357 and IFF21353) are able to modify IFF05588 under these reaction conditions”.
With B8 the “modification of IFF05588 (reverse phase chromatography, 5 to 15 min)” value was “All samples containing proteins related to IFF05497 except seven (IFF21355, IFF21358, IFF21356, IFF21361, IFF21370, IFF21357 and IFF21353) are able to modify IFF05588 under these reaction conditions”.
In the case of B12, the “modification of IFF05588 (reverse phase chromatography, 5 to 15 min)” value is reported as “All samples containing proteins related to IFF05497 except seven (IFF21355, IFF21358, IFF21356, IFF21361, IFF21370, IFF21357 and IFF21353) are able to modify IFF05588 under these reaction conditions”.

In the case of B2, the Relative late peak area (centered, scaled, averaged over doses, 24 h; sample diluted 10-fold) is reported as 1.18.

Compared with B2, B10 is lower in Relative late peak area (reverse phase chromatography, 24 h): 0.6 for the first, 0.23 for the second.

In the case of B12, the Relative late peak area (reverse phase chromatography, 24 h) is reported as 0.25.

In the case of B3, the “modification of IFF05588 (reverse phase chromatography, 24 h, doses)” value is reported as “All samples containing proteins related to IFF05497 except two (IFF21376 and IFF21361) are able to modify IFF05588 under these reaction conditions. Close comparison of the chromatograms for these two samples show differences between buffer and sample chromatograms indicative of activity in the sampl”.

In the case of B10, the “modification of IFF05588 (reverse phase chromatography, 24 h)” value is reported as “All samples containing proteins related to IFF05497 except one (IFF21362) are able to modify IFF05588 under these reaction conditions”.

— patent US20250051821
